Data published in PMC4197110.

Target: dynamic microtubules grown from GMPCPP-stabilized seeds (UniProt Q6B856)
Assay: optical trap rupture force assay

Sequence of UniProt Q6B856 (Q6B856 whole entry, looked up): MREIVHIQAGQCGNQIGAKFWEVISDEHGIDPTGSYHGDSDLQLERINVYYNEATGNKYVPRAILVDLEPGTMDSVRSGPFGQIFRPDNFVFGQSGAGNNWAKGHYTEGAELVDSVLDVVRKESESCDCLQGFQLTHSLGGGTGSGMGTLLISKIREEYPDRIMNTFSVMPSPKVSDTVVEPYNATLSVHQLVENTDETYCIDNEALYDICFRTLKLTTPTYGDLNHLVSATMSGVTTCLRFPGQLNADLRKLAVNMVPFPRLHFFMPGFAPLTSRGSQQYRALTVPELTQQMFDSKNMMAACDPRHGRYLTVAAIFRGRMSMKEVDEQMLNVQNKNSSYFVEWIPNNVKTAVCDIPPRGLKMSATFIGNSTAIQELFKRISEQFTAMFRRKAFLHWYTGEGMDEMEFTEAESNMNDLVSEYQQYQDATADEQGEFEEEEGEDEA

## dad1-1 kinetochore particles (from UniProt P40568 1-576) (complex)
  mean rupture force: 2.7 pN
